The results in this text go back to US9322000B2, “Methanol dehydrogenase enzymes from Bacillus” (Sinvent AS, priority 2012, dated 2016).

Data set [1] can be described thus: Formaldehyde reductase assay of purified MDH proteins. The class given is biochemical. Conditions: 45° C., formaldehyde reductase activity; for Km: read-out: Km, variable substrate Formaldehyde. As to the method:
(§1) Alcohol dehydrogenase activities were measured spectrophotometrically essentially as described previously (Hektor, Kloosterman et al. (2002) Chem 277(49): 46966-46973) and the reaction mixture contained: 100 mM Glycine-KOH pH 9.5 (unless otherwise stated), 5 mM MgSO4, 0.5 mM NAD^+ and 500 mM alcohol (methanol, ethanol, propanol, 1,3-propanediol, or butanol). NAD^+ was substituted with equal concentrations of NADP^+, FMN^+, and FAD^+, when indicated. The reaction mixture for measurements of formaldehyde reductase activity contained: 50 mM Potassium-phosphate buffer pH=6.7, 0.15 mM NADH, 1 mM DTT and 11.6 mM (0.1-116 mM) formaldehyde. The assay components were mixed in the cuvette and pre-warmed to 45° C., unless otherwise stated. The reactions were started by addition of 5-40 μg of the purified MDH proteins, and the production of NADH was monitored at 340 nm for 4 minutes. One unit of MDH activity was defined as the amount of enzyme needed to produce 1 μmol NADH per minute under the conditions described above. Purified Act (0.1-40 μg) or NudF (20 μg) proteins were added to the reaction mixtures as indicated in the text.
(§2) The purified MDH and Act proteins (20 μg) were used in the kinetic experiments performing the methanol dehydrogenase and the formaldehyde dehydrogenase assays essentially as described above. […] For determination of the Km for NAD^+ (Km,NAD+) and Vmax, the methanol concentration was kept constant at a saturating level (500 mM), while the concentration of NAD^+ was varied (5-1000 μM). […] Act (20 μg) was added to the reaction mixtures for determination of Kμ,MεOH and Vmax values in the presence of this activator, as indicated in the text. In general, the slopes of activity versus time were linear in the measured period (data not shown). Km and Vmax values were calculated by using nonlinear regression with the Microsoft Excel solver-tool to fit the measured data to the Michaelis-Menten equation, as described previously (Jakobsen et al., (2009) Appl Environ Microbiol 75(3): 652-661). The values obtained from the regression were then compared to the values obtained from Lineweaver-Burk and Hanes-Woolf plots to ensure that the global minimum, not a local minimum, had been found.

The nature of data set [2]: In vivo Mdh activity in cell suspensions of recombinant E. coli (formaldehyde accumulating in supernatant). The class given is cell-based. The following applies: E. coli cell suspension. The source says: The genes coding for Mdh and the Mdh activator protein Act were amplified from pET21a-plasmids harboring genes from B. methanolicus strains MGA3 (mdh-MGA3, mdh2-MGA3, mdh3-MGA3 and act-MGA3) and PB1 (mdh-PB1, mdh1-PB1 and mdh2-PB1). The genes were then cloned either into the pSEVA424 plasmid (mdh genes) or in the pSEVA131 plasmid (act gene). For cloning of mdh-MGA3, mdh-PB1, mdh1-PB1 and act-MGA3, EcoRI and HindIII restrictions sites were used, while mdh2-MGA3, mdh2-PB1 and mdh3-MGA3 were cloned by using EcoRI and PstI restriction sites. The resulting expression vectors were transformed into electrocompetent wt E. coli K-12 (BW25113) and into E. coli K-12 (BW25113) with a deleted frmA gene.
Expression Experiments For expression experiments, the cells were cultivated in either Luria-Bertani (LB) medium for in vitro assays or in M9 medium for in vivo assays both containing 20 μg/ml streptomycin for pSEVA424. When Act was co-expressed the medium was supplemented with 100 μg/ml ampicillin. Expression was induced when cells reached OD 0.5 (for in vitro tests) or OD 1 (for in vivo tests) by adding 0.1 mM IPTG (final concentration) for 6 hours. Cells were then harvested by centrifugation. For in vitro assays, crude cell extract was prepared by lysing the cells in a French press following ultracentrifugation. Alternatively, cells were resuspended in M9-medium without glucose for in vivo activity measurements. Enzyme Assays
In vivo measurements of Mdh activity: For determination of Mdh activity in cell suspensions, cells were harvested after IPTG induction, washed and resuspended in M9-medium without glucose and IPTG. OD600 was set to 1 for normalization. […] The assay was started by addition of 1 M methanol and subsequent measurement of accumulating formaldehyde in the supernatant resulting from the methanol dehydrogenase catalyzed oxidation of methanol. The calculated activities were based on the assumption that 1 l of an OD1 culture contains 0.3 g biomass of which 50% is protein.

A short description of data set [3]: Methanol dehydrogenase assay of purified recombinant MDH proteins (NADH production at 340 nm). The class given is biochemical. Conditions: for Vmax, variable substrate Methanol + Act / Km / Vmax, variable substrate Methanol: 45° C., pH 9.5; for Vmax, variable substrate Methanol: absence of Act. As to the method:
as §1, §2

The nature of data set [4]: In vitro methanol dehydrogenase activity in lysates of recombinant B. subtilis 168. The class given is biochemical. Conditions: for methanol dehydrogenase activity on expression in B. subtilis (in words): 50° C., pH 9.5. As to the method: B. subtilis 168 cells were transformed with the act-MGA3, mdh-MGA3, mdh2-MGA3, and mdh3-MGA3 expression plasmids, and the analogous vectors coexpressing each of the methanol dehydrogenase genes with the act-MGA3 gene. Positive colonies were picked from the plate and the plasmid was isolated and checked by restriction for positive clones. Colonies were picked from plate and grown overnight at 37° C. (250 rpm) and diluted to OD600=0.1 in 20 ml LB containing chloramphenicol (5 μg/ml). After 3 hrs of growth at 37° C. (250 rpm), 500 μl 40% xylose were added to the culture to induce expression. The culture was grown for another 3 hrs and samples of 2 ml were taken. The sample was spun down for 2 min, 11.000×g and the supernatant was removed. The pellet was resuspended in 300 μl Birnboim A for B. subtilis (10 mM Tris-HCl pH 8.0; 20% sucrose; 50 mM NaCl; 0.25 mg/ml lysozyme; protease inhibitor) and incubated at 37° C. for 30 minutes. The samples were stored at −80° C. before use. In addition, we took advantage of recombinant E. coli cells constructed in the project expressing mdh-MGA3, mdh2-MGA3, mdh3-MGA3 and act-MGA3 from the pET21a plasmid in the in vitro assays.
The activities of the Mdh proteins were measured by following the formation of NADH spectrophoto-metrically. The reaction mixture contained: • 100 μl Glycine-KOH (pH 9.5) • 100 μl 5M Methanol (or 5M ethanol) • 5 μl 1M MgSO4 • 10 μl 50 mM NAD^+ • 10 μl sample • (10 μl E. coli act-pET21a lysate) • 775 μl H2O
The cuvets and reaction mixture without cell lysate were pre-incubated at 50° C. Formation of NADH was followed for 10 minutes at 340 nm at 50° C. The total activity was calculated by dividing the increase in absorption units per min by the extinction coefficient ([…]) and the total protein concentration in U/mg total protein. All assays were performed both by using methanol and ethanol as alternative substrates.

[5] abbreviates: methanol 500 mM, read-out: Km, variable substrate NAD+.

B1: Mdh-MGA3: previously reported plasmid pBM19-encoded NAD-dependent methanol dehydrogenase of B. methanolicus MGA3, SEQ ID NO. 8 (protein)
chain: MTTNFFIPPASVIGRGAVKEVGTRLKQIGAKKALIVTDAFLHSTGLSEEVAKNIREAGVDVAIFPKAQPDPADTQVHEGVDVFKQENCDSLVSIGGGSSHDTAKAIGLVAANGGRINDYQGVNSVEKPVVPVVAITTTAGTGSETTSLAVITDSARKVKMPVIDEKITPTVAIVDPELMVKKPAGLTIATGMDALSHAIEAYVAKGATPVTDAFAIQAMKLINEYLPKAVANGEDIEAREKMAYAQYMAGVAFNNGGLGLVHSISHQVGGVYKLQHGICNSVNMPHVCAFNLIAKTERFAHIAELLGENVAGLSTAAAAERAIVALERINKSFGIPSGYAEMGVKEEDIELLAKNAYEDVCTQSNPRVPTVQDIAQIIKNAM
modifications: Bacillus methanolicus MGA3
Take B1: the “Vmax, variable substrate Formaldehyde” value in data set [1] is 1.4 U/mg. For the same molecule, the Km in data set [1] came out at 1000 µM; in data set [3] (20 μg MDH + 20 μg Act, read-out: Km, variable substrate Methanol + Act), 12000 µM; in data set [3] (setting [5]), 14 µM. Moreover, the In vivo activity in data set [2] (37° C., +Act) stood at 1 mU/mg; in data set [2] (37° C., −Act), 1 mU/mg; in data set [2] (42° C., +Act), 1 mU/mg; in data set [2] (42° C., −Act), 3 mU/mg. Also, the “Vmax, variable substrate Methanol + Act” value in data set [3] (20 μg MDH + 20 μg Act) came to 0.5 U/mg. Also, in data set [3], the “Vmax, variable substrate Methanol” value is 0.08 U/mg. Also, the “reduction of Km,MeOH in the presence of Act” value in data set [3] (Act added vs. no Act) is on record as 17 fold. In addition, in data set [4], the “methanol dehydrogenase activity on expression in B. subtilis (in words)” value (from here on “methanol dehydrogenase activity”) was “expressed active methanol dehydrogenases”. For the same molecule, in data set [4] (Act supplied from E. coli lysates), the “ranking of activity in B. subtilis” value is recorded as “most active”.

B2: Mdh2-MGA3: NAD-dependent methanol dehydrogenase encoded by chromosomal gene mdh2 of B. methanolicus MGA3, SEQ ID NO. 2 (protein)
chain: MTNTQSAFFMPSVNLFGAGSVNEVGTRLADLGVKKALLVTDAGLHGLGLSEKISSIIRAAGVEVSIFPKAEPNPTDKNVAEGLEAYNAENCDSIVTLGGGSSHDAGKAIALVAANGGKIHDYEGVDVSKEPMVPLIAINTTAGTGSELTKFTIITDTERKVKMAIVDKHVTPTLSINDPELMVGMPPSLTAATGLDALTHAIEAYVSTGATPITDALAIQAIKIISKYLPRAVANGKDIEAREQMAFAQSLAGMAFNNAGLGYVHAIAHQLGGFYNFPHGVCNAVLLPYVCRFNLISKVERYAEIAAFLGENVDGLSTYDAAEKAIKAIERMAKDLNIPKGFKELGAKEEDIETLAKNAMKDACALTNPRKPKLEEVIQIIKNAM
modifications: Bacillus methanolicus MGA3
Consider B2, for which the “Vmax, variable substrate Formaldehyde” value in data set [1] amounted to 1.5 U/mg. Moreover, the Km in data set [1] was 5000 µM; in data set [3] (setting [5]), 22 µM. Further, the In vivo activity amounted to 9 mU/mg in data set [2] (37° C., +Act); 32 mU/mg in data set [2] (37° C., −Act); 11.3 mU/mg in data set [2] (42° C., +Act); 45 mU/mg in data set [2] (42° C., −Act). In addition, the “Vmax, variable substrate Methanol + Act” value in data set [3] (20 μg MDH + 20 μg Act) is reported as 0.15 U/mg. In addition, the “Vmax, variable substrate Methanol” value in data set [3] is listed as 0.04 U/mg. Further, the “change of Km,MeOH in the presence of Act (in words)” value in data set [3] (Act added vs. no Act) is reported as “remained essentially the same”. Besides, in data set [4], the “methanol dehydrogenase activity” value was “expressed active methanol dehydrogenases”. Further, in data set [4] (act and mdh gene co-expressed from the same plasmid), the “ranking of activity in B. subtilis” value is given as “most active”.

B3: Mdh3-MGA3: NAD-dependent methanol dehydrogenase encoded by chromosomal gene mdh3 of B. methanolicus MGA3, SEQ ID NO. 4 (protein)
chain: MKNTQSAFYMPSVNLFGAGSVNEVGTRLAGLGVKKALLVTDAGLHSLGLSEKIAGIIREAGVEVAIFPKAEPNPTDKNVAEGLEAYNAENCDSIVTLGGGSSHDAGKAIALVAANGGTIHDYEGVDVSKKPMVPLIAINTTAGTGSELTKFTIITDTERKVKMAIVDKHVTPTLSINDPELMVGMPPSLTAATGLDALTHAIEAYVSTGATPITDALAIQAIKIISKYLPRAVANGKDIEAREQMAFAQSLAGMAFNNAGLGYVHAIAHQLGGFYNFPHGVCNAILLPHVCRFNLISKVERYAEIAAFLGENVDGLSTYEAAEKAIKAIERMARDLNIPKGFKELGAKEEDIETLAKNAMNDACALTNPRKPKLEEVIQIIKNAM
modifications: Bacillus methanolicus MGA3
Take B3: the “Vmax, variable substrate Formaldehyde” value in data set [1] stood at 5 U/mg. Also, the Km was 15000 µM in data set [1] and 40 µM in data set [3] (setting [5]). In addition, the In vivo activity in data set [2] (37° C., +Act) came out at 11 mU/mg; in data set [2] (37° C., −Act), 24 mU/mg; in data set [2] (42° C., +Act) it was 24 mU/mg; in data set [2] (42° C., −Act), 31 mU/mg. Further, the “Vmax, variable substrate Methanol + Act” value in data set [3] (20 μg MDH + 20 μg Act) is 0.45 U/mg. Besides, the “Vmax, variable substrate Methanol” value in data set [3] worked out at 0.09 U/mg. Also, the “change of Km,MeOH in the presence of Act (in words)” value in data set [3] (Act added vs. no Act) was “remained essentially the same”. For the same molecule, the “methanol dehydrogenase activity” value in data set [4] is given as “expressed active methanol dehydrogenases”.
